Measurements as given in the supplement of paper PMC10567573.

B1: INTS3 (parent)
chain: FSDDEEDLNSKGKKREFRFHPIKE

Variants of: B1
Assay: protein stability index of a GFP-peptide fusion (GPS, HEK-293T) (PSI 1-6); higher = more stable
Settings: c terminus: a fixed tail appended
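Further: lentivirally expressed fusions sorted by FACS into six bins by GFP to DsRed ratio, PSI derived from sequencing read proportions per bin multiplied by bin number.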

Protein stability index of substitutions, site by site:
E24: T 1.81; F 1.91; S 2.11; H 2.2; L 2.14; P 1.76; D 3.07; R 2.31; Y 2.72; V 2.07; G 2.17; I 2.06; M 1.8; A 2.2; N 2.69
D3: R 2.19; K 2.59; Y 2.32; I 2.09; M 2.55; A 2.19; L 2.23; F 2.38; T 2.9; P 2.29; E 2.61; V 2.61; C 2.42; H 2.69
D4: Y 2.51; G 2.52; E 3.05; S 2.75; H 2.95; F 2.19; Q 2.9; A 2.72; T 2.56; W 2.4; R 1.85; C 2.4
K11: Y 3.29; S 3.22; Q 3.62; W 1.9; I 3.48; T 3.35; V 2.89; E 3.38; D 3.56; P 3.38; M 2.79; F 3.24; A 3.62; L 2.73
N9: D 3.79; G 2.82; F 2.31; H 2.77; R 2.76; A 3.15; M 2.66; K 2.21; W 2.12; P 2.61; I 2.06; V 3.83; T 3.36
S2: V 2.2; H 2.3; T 2.88; D 3.34; G 3.22; L 2.47; M 2.6; W 2.33; Y 2.43; P 2.53; C 2.8; Q 2.5; I 2.39; N 2.92; E 3.39; R 2.14
R15: L 2.53; T 3.38; H 2.26; F 2.81; S 3.6; G 3.2; Q 3.62; I 3.47; M 2.56; D 3.94; E 4.63
K14: V 2.03; H 2.86; C 2.66; P 3.46; G 2.96; A 3.01; N 3.27; W 1.53; T 3.46; F 2.13; L 2.11; M 1.41; D 3.73; Q 3.1; S 3.79; Y 2.48; I 1.88; R 2.88
H20: G 4.34; V 3.92; M 4.83; I 4.59; N 4.69; A 4.58; Y 4.51; R 4.24; L 5.1; K 5.13; D 5.39
F19: G 4.98; D 5.53; K 5.4; V 5.1; C 4.98; M 4.86; Y 3.49; E 5.59; Q 5.14; R 5.29; L 4.67; I 4.68; N 5.26
E6: R 2.07; D 2.8; L 2.69; S 2.15; M 2.18; A 2.6; G 2.7; C 2.62; Q 2.29; W 2.32; P 2.36; N 2.1; V 2.27; K 2.61
F1: N 3.24; A 2.89; D 2.84; K 2.33; E 3.36; C 2.73; Q 3; M 2.58; G 2.99; P 3.19; H 2.72; L 2.69; T 3.05; V 3.29
K13: N 3.2; T 3.11; A 3.41; Q 3.29; M 3.23; W 2.29; S 3.06; F 2.44; E 3.6; P 2.85; Y 3.02; V 2.11
S10: L 2.57; Q 3.43; E 2.99; Y 2.59; F 2.45; D 3.64; R 2.41; G 2.9; I 2.17; V 2.75; P 2.63; H 2.64; A 2.58; K 2.38; T 2.87
D7: M 2.59; N 2.29; L 2.56; R 1.92; S 2.66; H 2.52; K 2.04; V 2.7; F 2.47; A 2.59; Q 2.15
L8: I 2.83; F 2.75; H 2.73; M 2.78; N 2.99; E 3.4; T 3.23; P 3.4; G 3.29; A 3.35; Q 3.44; V 2.99; S 3.37; R 2.94
K23: F 3.4; V 3.06; M 3.5; H 3.34; W 2.75; Q 3.18; N 3.18; R 2.68; D 4.1; E 3.64; G 3.19; Y 2.91; P 3.06; C 3.43
E16: V 2.89; H 3.08; A 2.25; N 2.88; L 3.46; Y 2.61; M 2.74; Q 2.61; T 2.67; W 2.45; C 2.37; R 2.23; K 3.69; I 2.58; S 2.93; F 3.05
F17: W 2.01; D 4.43; C 5.31; L 4.76; P 5.06; A 5.13; M 4.79; I 4.9; G 5.18; Q 5.18; E 5.03; T 5.04; R 4.97; K 5.12
I22: D 3.98; M 3.2; E 3.89; Q 3.32; G 2.98; F 2.12; Y 2.48; P 3.25; H 2.91; A 2.88; V 3.07; N 2.88; S 2.63; K 2.81; T 3.29
E5: A 2.81; Q 2.3; G 2.44; H 2.18; Y 2.29; L 2.55; F 2.41; T 2.68; N 2.39; M 2.61; V 2.9; W 1.88; P 2.48; S 2.1; C 2.49
R18: M 4.9; Q 5.2; W 3.35; V 4.56; A 4.33; L 4.57; E 5.1; F 3.27; D 4.94; T 4.64; H 4.85; Y 4.36; N 5.14; I 4.55
G12: P 2.98; R 2.14; H 2.58; F 1.91; C 2.13; S 2.65; N 2.83; L 2.29; Y 2.4; V 2.1; T 2.44; I 2.14; Q 3.2; M 2.58
P21: F 3.58; C 3.28; R 4.19; H 4.01; K 4.55; A 3.98; L 4.25; T 4.43; D 3.76; V 3.88; Q 3.44; Y 3.73; G 4.16; N 4.11; E 4
